Experimental data taken from PMC2971551.

Biological target: truncated neck domain fragment of DC-SIGNR (neck lacking the N-terminal non-repeat region and the first half of the first repeat unit) (human)
Assay: SEC; gel filtration of the purified truncated fragment; profile superimposed on that of the previously described DC-SIGN extracellular domain

stoichiometry N: 4
Substance: truncated neck domain fragment of DC-SIGNR (neck lacking the N-terminal non-repeat region and the first half of the first repeat unit) (domain or fragment)
